Measured values as given in patent publication US11235041B2, “Peptides and combination of peptides for use in immunotherapy against various cancers” (Immatics Biotechnologies GmbH, priority 2015, dated 2022).

Columns and labels:
HLA-A*02 = HLA-A*02 (Homo sapiens, UniProt P04439, D140Y/D185E/D98H/E176V/E277Q/G131W/G231S/I119V/I121R/I166T/I218V/L300P/N151K/N90K/P208A/P217A/Q86G/Q94H/R138H/R169H); assay: MHC binding assay: UV-ligand exchange and beta2m ELISA, peptide exchange yield (Table 20); conditions: binding to HLA-A*02; UV-ligand exchange, beta2m ELISA
Description: Candidate peptides for T cell based therapies according to the present invention were further tested for their MHC binding capacity (affinity). The individual peptide-MHC complexes were produced by UV-ligand exchange, where a UV-sensitive peptide is cleaved upon UV-irradiation, and exchanged with the peptide of interest as analyzed. Only peptide candidates that can effectively bind and stabilize the peptide-receptive MHC molecules prevent dissociation of the MHC complexes. To determine the yield of the exchange reaction, an ELISA was performed based on the detection of the light chain (β2m) of stabilized MHC complexes. The assay was performed as generally described in Rodenko et al. (Rodenko et al., 2006).
96 well MAXISorp plates (NUNC) were coated over night with 2 ug/ml streptavidin in PBS at room temperature, washed 4× and blocked for1h at 37° C. in 2% BSA containing blocking buffer. Refolded HLA-A*02:01/MLA-001 monomers served as standards, covering the range of 15-500 ng/ml. Peptide-MHC monomers of the UV-exchange reaction were diluted 100 fold in blocking buffer. Samples were incubated for 1h at 37° C., washed four times, incubated with 2 ug/ml HRP conjugated anti-β2m for 1h at 37′C, washed again and detected with TMB solution that is stopped with […]. Absorption was measured at 450 nm. Candidate peptides that show a high exchange yield (preferably higher than 50%, most preferred higher than 75%) are generally preferred for a generation and production of antibodies or fragments thereof, and/or T cell receptors or fragments thereof, as they show sufficient avidity to the MHC molecules and prevent dissociation of the MHC complexes.
Table 20: MHC class I binding scores. Binding of HLA-class I restricted peptides to HLA-A*02 was ranged by peptide exchange yield: <20%=+; 20%-49%=++; 50%-75%=+++; >=75%=++++

[1] = test system: CD8+ T cells of healthy HLA-A*02+ donors; assay: In vitro T-cell priming assay with artificial antigen presenting cells loaded with peptide/HLA-A*02 complexes and anti-CD28, multimer readout; format: cell-based, human; conditions: HLA-A*02 peptides; peptide-specific multimer+ CD8+ T cells after in vitro priming; Table 19B
Description: FIGS. 4A to 4D show exemplary results of peptide-specific in vitro CD8+ T cell responses of a healthy HLA-A*02+ donor. CD8+ T cells were primed using artificial APCs coated with anti-CD28 mAb and HLA-A*02 in complex with SeqID No 27 peptide (FIG. 4A, left panel), SeqID No 229 peptide (FIG. 4B, left panel), SeqID No 230 peptide (FIG. 4C, left panel) and SeqID No 235 peptide (FIG. 4D, left panel), respectively. After three cycles of stimulation, the detection of peptide-reactive cells was performed by 2D multimer staining with A*02/SeqID No 27 (FIG. 4A), A*02/SeqlD No 229 (FIG. 4B), A*02/SeqlD No 230 (FIG. 4C) or A*02/SeqlD No 235 (FIG. 4D). Right panels (FIGS. 4A, 4B, 4C and 4D) show control staining of cells stimulated with irrelevant A*02/peptide complexes. Viable singlet cells were gated for CD8+ lymphocytes. Boolean gates helped excluding false-positive events detected with multimers specific for different peptides. Frequencies of specific multimer+ cells among CD8+ lymphocytes are indicated.
In order to obtain information regarding the immunogenicity of the TUMAPs of the present invention, the inventors performed investigations using an in vitro T-cell priming assay based on repeated stimulations of CD8+ T cells with artificial antigen presenting cells (aAPCs) loaded with peptide/MHC complexes and anti-CD28 antibody.
In order to perform in vitro stimulations by artificial antigen presenting cells loaded with peptide-MHC complex (pMHC) and anti-CD28 antibody, the inventors first isolated CD8+ T cells from fresh HLA-A*02 leukapheresis products via positive selection using CD8 microbeads (Miltenyi Biotec, Bergisch-Gladbach, Germany) of healthy donors obtained from the University clinics Mannheim, Germany, after informed consent.
PBMCs and isolated CD8+ lymphocytes were incubated in T-cell medium (TCM) until use consisting of RPMI-Glutamax (Invitrogen, Karisruhe, Germany) supplemented with 10% heat inactivated human AB serum (PAN-Biotech, Aidenbach, Germany), 100 U/ml Penicillin/100 μg/ml Streptomycin (Cambrex, Cologne, Germany), 1 mM sodium pyruvate (CC Pro, Oberdorla, Germany), 20 μg/ml Gentamycin (Cambrex). 2.5 ng/ml IL-7 (PromoCell, Heidelberg, Germany) and 10 U/ml IL-2 (Novartis Pharma, Nürnberg, Germany) were also added to the TCM at this step.
Generation of pMHC/anti-CD28 coated beads, T-cell stimulations and readout was performed in a highly defined in vitro system using four different pMHC molecules per stimulation condition and 8 different pMHC molecules per readout condition.
The purified co-stimulatory mouse IgG2a anti human CD28 Ab 9.3 (Jung et al., 1987) was chemically biotinylated using Sulfo-N-hydroxysuccinimidobiotin as recommended by the manufacturer (Perbio, Bonn, Germany). Beads used were 5.6 μm diameter streptavidin coated polystyrene particles (Bangs Laboratories, Illinois, USA).
pMHC used for positive and negative control stimulations were A*0201/MLA-001 (peptide […] (SEQ ID NO. 303) from modified Melan-A/MART-1) and A*0201/DDX5-001 ([…] from DDX5, SEQ ID NO. 304), respectively.
800.000 beads/200 μl were coated in 96-well plates in the presence of 4×12.5 ng different biotin-pMHC, washed and 600 ng biotin anti-CD28 were added subsequently in a volume of 200 μl. Stimulations were initiated in 96-well plates by co-incubating 1×10^6 CD8+ T cells with […] washed coated beads in 200 μl TCM supplemented with 5 ng/ml IL-12 (PromoCell) for 3 days at 37° C. Half of the medium was then exchanged by fresh TCM supplemented with 80 U/ml IL-2 and incubating was continued for 4 days at 37° C. This stimulation cycle was performed for a total of three times. For the pMHC multimer readout using 8 different pMHC molecules per condition, a two-dimensional combinatorial coding approach was used as previously described (Andersen et al., 2012) with minor modifications encompassing coupling to 5 different fluorochromes. […]

Substance	Peptide exchange (MHC class I binding score, peptide exchange yield) (HLA-A*02)	Wells positive [%] (in vitro immunogenicity) [1]
1 (LLYPEPWSV; listed as Homo sapiens) [compound 1]	++++ (>=75% = ++++)	++ (20%-49%=++)
4 (KLMPGTYTL; listed as Homo sapiens) [compound 4]	++++ (>=75% = ++++)	+ (<20%=+)
12 (GLLPLLHRA; listed as Homo sapiens) [compound 12]	++++ (>=75% = ++++)	++++ (>=70%=++++)
14 (ILAKDLFEI; listed as Homo sapiens) [compound 14]	++++ (>=75% = ++++)	++ (20%-49%=++)
92 (GLLFSLRSV; listed as Homo sapiens) [compound 92]	++++ (>=75% = ++++)	++ (20%-49%=++)
229 (AILAHLNTV; listed as Homo sapiens) [compound 229]	++++ (>=75% = ++++)	++ (20%-49%=++)
248 (YLDRFLAGV; listed as Homo sapiens) [compound 248]	++++ (>=75% = ++++)	++ (20%-49%=++)
249 (GLCERLVSL; listed as Homo sapiens) [compound 249]	++++ (>=75% = ++++)	+ (<20%=+)
